Patent publication US20180193486A1, “COMPOSITIONS AND METHODS FOR TREATMENT OF AUTOIMMUNE AND OTHER DISEASE” (priority 2010, published 2018)

Biological target: reconstituted human albumin (Homo sapiens, UniProt P02768)
Assay: Release of CPT in reconstituted human albumin (PBS solution)
Type: in vitro ADME
Details: compared with PBS
Description: This solution was added to a lyophilized powder of human plasma to reconstitute 100% human plasma by the recommended amount. The solution was divided into equal volume (250 μL) to 1.5 mL Eppendorf tubes, incubated at 37° C., and stopped at selected time point. Samples were stored at −80° C. until the analysis. Samples were separated from plasma by solid phase extraction columns. The solid phase extraction cartridge (Oasis HLB 1 cc cartridge from Waters) was pre-conditioned with 1 mL of acetonitrile and then with 1 mL of 8.5% H3PO4 before loading. Samples were acidified with equal volume of 8.5% H3PO4 prior to loading. After the acidified solution was loaded on the cartridge, the bed was washed with 3×1 mL of water. Released CPT and polymer conjugate were eluted with 3×1 mL of a solution mixture of acetonitrile and potassium phosphate buffer (pH 4.1) (60/40 v/v). The eluted solution was diluted to 5 mL total volume in a 5 mL volumetric flask. 30 μL of such solution was injected into the HPLC. The peak area from the CPT lactone form was integrated and compared to a standard curve.

Chain of reconstituted human albumin (P02768 25-609): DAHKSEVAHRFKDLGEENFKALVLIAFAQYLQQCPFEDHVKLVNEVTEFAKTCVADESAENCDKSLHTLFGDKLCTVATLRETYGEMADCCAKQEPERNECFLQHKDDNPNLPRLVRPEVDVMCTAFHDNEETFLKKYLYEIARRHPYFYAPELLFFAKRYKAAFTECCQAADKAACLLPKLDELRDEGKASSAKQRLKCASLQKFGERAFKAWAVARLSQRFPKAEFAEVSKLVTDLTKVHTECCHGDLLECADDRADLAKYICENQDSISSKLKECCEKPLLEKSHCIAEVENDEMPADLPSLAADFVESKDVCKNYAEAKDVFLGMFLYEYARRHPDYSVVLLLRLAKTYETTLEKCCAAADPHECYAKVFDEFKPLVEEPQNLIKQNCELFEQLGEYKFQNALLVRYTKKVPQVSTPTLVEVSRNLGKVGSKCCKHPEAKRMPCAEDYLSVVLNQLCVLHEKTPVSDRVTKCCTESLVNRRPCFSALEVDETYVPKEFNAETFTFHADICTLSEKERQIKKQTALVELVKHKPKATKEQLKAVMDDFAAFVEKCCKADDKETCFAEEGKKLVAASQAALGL

Substance	CPT release rate in the presence of albumin
Poly(CDDCys-PA-PEG)-GlyGlyGly-CPT [HGGG6]	on the same order of magnitude as in PBS
Poly(CDDCys-PA-PEG)-Gly-CPT [HG6]	on the same order of magnitude as in PBS
